Data on 69 sequences can be found in the domain aggregation screens of Martell et al. (2025).
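Further: 20 min heating vs room temperature control held 20 min.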

The nature of the data set: soluble fraction after stress (log2 fold change); higher = more stays soluble; pooled small domains, quantitative proteomics. To be noted: stress: 75 degC.
Regarding “HMGGPEPIPAQIREGDTVYVTKFKQLGLVLKISEDTAEVQIGPLRATVAKTELSKVDATATEHR”, the “soluble fraction (log2)” value is -0.0822. Next, “HMGGQFVKVEVIAQIFGVTVRRVQQLTQEGVVKTTEIPGEGRRYELVPTIKTYIQYLSDKAY”: -4.02. In the case of “HMGGTFLVRILDPALNIRAQPSLTARINGVIRDKSVYTIVATSFEPKTQITWGKLKSGAGWISIGSKYVKK”, the “soluble fraction (log2)” value is -3.4. The result for “HMGGVTVQNRETHVNSTVNVRSEQTTESERVALAYQGDAITQIESYENGWSKVEYKGLSGYVMTEYL” reads 0.275; that for “HMGGYLIGDVAQMVGLSRDALRFYEKKGIIRADKKENGYRYYSEDDIYRLMYILYHRKMNTSLEEIGGLMS”, -0.722; that for “HMGHKKLTIELQDEIIVLPKELEKYNLTVSDDKTSLIYTYKSRGEKTGITDLLRDIKDAGLRLKDLITEQ”, 0.284. Next, “HMGHTVHAVPEAADRQRLDVFVGNLHPTISRAYIQKLSKEDQILVNGKPEKAGFKLRTGHSVSVPDMSE”: 0.00554. Consider “HMGIAEAKRVIVRTLHDVLGPEADFLTEKIDVAQTAAELRVHAEKYRDMLVDMGKPKKSAAFWEAFEAALP”, for which the “soluble fraction (log2)” value was -0.588.

For the sequence “HMGIAKLLTEQEYKIALLAAERRTNAMIAEEMNLTENTVKTHLKHIFDKVGIAGNAKNKRHLLADMMNSER”, the “soluble fraction (log2)” value is -0.552. The result for “HMGIDISAFSETALQVLRLQAAGYTAKEISEKLHITPRTVKYHASQNYRKLDAKNLVDAVQIAQALHI” reads -1.79; that for “HMGIEQVELASRVRDAVDSLPHHLREIILLSYFQKMSYNQIAETLQVPLGTVKSRLHAAVASFAQAWTQSS”, -0.712. Next, “HMGIFAQTTKWRDIYTVKKKDTIFGIANKYGLSLPELMEANPEMKQEGYMLQKGTTLFIPFASD”: -1.32; “HMGIGSTLTDGVRVYASDDEIVVNAPAESDVRIFNAGGAQLYAGRVADVRVAVAKGLYVVTVDGRSTKITV”: -1.11; “HMGIILDWELFEQFADKLKRKKVDFVIEPYLRFEGRRGEQSTLFIKDPSGNYLEFKAFKNIDMLFEK”: -1.78. In the case of “HMGIPIEAYHESLHRHYIDLWELLDTGKETLIDAEGNEVDKIHLLNAIRFNVNGMLHELLKE”, the “soluble fraction (log2)” value was -1.91. Next, “HMGIQYVASGHYARMETDAQGVSRLFPPESGAPDESDRLAALSPEVLTRLILPLGDFAPEDVEEMAVD”: -0.0745; “HMGIRAFDPEAFDERLKEFFSMIAPYKKLDTRSLQPHFPHHAKEVAERIRQLAEAGKIKVDGFYISEL”: -0.587; “HMGIRDIHITVNGESLKLSKKQNYIFVDIFDFYPFDLSILGGSKLITTINGEQAEFTSPLKDGDVVELYWK”: -2.25. Regarding “HMGISNEETFLLEKMSSGRRYSRKELDNLMGFEKTKTIRLLGSLINKGLVVAEGVNRARRYIR”, the “soluble fraction (log2)” value was -1.27. The result for “HMGISQAQAMQALRKLIEEEDKHTPLSDQTLMERLKAAGIPLARRTIAKYRESLGIPSAAQRK” reads -0.266; that for “HMGISVEVPDLKNMSVAEAGSLLKNSGLSYAVVDSDYVKTISPGKILDQNPGRGLRVKKGRIVYLTINSL”, -1.69; that for “HMGITDHIYQDLKKRLENGNYPAGTRFPSESTLADEFSVNKMTMNKIVSMLAEQGYLIRGNRGAGTRVAEN”, -0.399. With “HMGITPSIEMILEYFAFKESSETEANKFFNYYSSIGWLVGGKTKMKDWKASARNWIMNQNKFQ”, the “soluble fraction (log2)” value is -4.63. Consider “HMGIVAPGTLKHLHAVGNSYYPDWETKRHELVTAVTKGRTSSSKELYEAEANRLITRIEELLMTAAQSV”, for which the “soluble fraction (log2)” value was -0.113.

Regarding “HMGIVTMPGQGSKMRFDFDATGDLPSSTSWRGMFAYANNTKRAYVSTGTTMGGYNGWRQLIAMDEYGNYQT”, the “soluble fraction (log2)” value stood at 0.0821. Next, “HMGKEIEAPDFKNMTLKEAKIAAKEYKIRIKKGDEVVSEEVEKGRIVSQDPDAGTTIKTGSTVTVNISKGL”: 0.131; “HMGKELSTVVVPDLTGLSVLEARNVLTKVGLQLTPSGAGIAFKQIPTPGTRLTLGATVTVYFVATGY”: -1.47; “HMGKELTVPDVVGQNYVSAQEKLIAGGFQVEVADSVYDSRYGRGVVVDQNPHKDTRVKPGRLIYVTVNA”: -0.157. As to “HMGKEWPTPDNVEEWKKLVKKARLWPIQADQAQSEETRERNRKKWELFVAYAKRFGYRAGIGETGKPFVNN”, the “soluble fraction (log2)” value is -1.15. The result for “HMGKINEIVANNIAILRKKNRLSLEELGKLSGVSKSMLALIEKGDGNPTLGILWKIANGLGVPFDELTRRP” reads -1.35; that for “HMGKLGENIKRIREGMGLSQRQFGELIGKSDSQIWSYENDRTDILASTLYKIAAVANVDFNNLMAGIIP”, -1.07; that for “HMGKLYRDRYAPLEPDGARAGDRVFIISLEKEGTLERIDLPRKTATVLLGSSIRSTFPLDDLYQPRG”, -0.25. The result for “HMGKMTSTLGVHIAAYRKEHGETVAQFASRSGVSVSSIRRIESGISDPSADLVWKISRHMGMTMDDLFKKM” reads -3.74; that for “HMGKNISEEDMLGYFKKIDLDYDAETKEVIAPTFRHDLFRLADLAEEVARFFGYDNIPTTLPSGEAT”, 0.185.

In the case of “HMGKPAGLIRELGNHPEDEKPVTLNNGRFGPYVKHGKVMASLTKADSPDDITFDRAIELIAIKAEKMAAKG”, the “soluble fraction (log2)” value was 0.173. Next, “HMGKPTPASQVATRWLTGNLPESLPVAGPAPSFEALARTVSTDLHPRSVLQELVRLGVAEEANGVVTLRRQ”: 0.0474; “HMGKPVTMELLIPYSQGSLVHRISEAGEVAKTEYQNDGTYMQVTFTPSAKDHALMQEVASYRI”: 0.653.

For the sequence “HMGKSDDSLAAEKFIQHVRKNGELSYEQAYRMVHAYFPDFRNFEGMVSGAVKSGYLILIQKSTGLFLRAKE”, the “soluble fraction (log2)” value is -3.68.

As for “HMGKTEMPFSTFLTEVDKGNIVSVDIRGSEISGNFRDGKGFKTYSPNYPNLVEKLSAKGVAITAGPR”, the “soluble fraction (log2)” value is 0.389.

For the sequence “HMGKTKFTEMSALELKAYAELNNNSMHWVYRMLYIGGGDVGFRKGMKELGYSGKFIWMTLERLKKS”, the “soluble fraction (log2)” value was -1.24. Next, “HMGKTTQEIEERSSTSTLTLTQTPKEIISVQGKKSDQSFFTNIQYTQNGKVIVPKQTGIYDTIKVVFTVSL”: -1.48; “HMGKVLIYKPNMSVSDVAIRLGISNAEIIKRLMGLGVMTSINQTIDRDTIELVAMDLGFSIEN”: -1.81. Next, “HMGLAGVQSDVKVSFDGDLLVVTSDIARSFNLFAVDGRLIRSVNLIAGRNEIRGLERGFYLAEKQKIFV”: -1.93; “HMGLAWTVEGRTVLLGRTADRIELYNVGGGLVALARESDRISAPGVGLYVVRVVSDGQSVSQKIWIT”: -2.39. The result for “HMGLDMSLEREQHRALREASQWYARLADEQVDSDAERAWRHWVAADEANQRAWQYIEAVSQRFDG” reads -0.605. For the sequence “HMGLDNEGFERLRQKITRLLSEEALPVKELVDSFASKMRQEVLETLAFLQQEGVIEEKNGKLFLK”, the “soluble fraction (log2)” value is -0.189. Consider “HMGLIDNLTRIMEKKNISAYQLEKAGIVKQTTFTSWKKGTQPALDKIIKIMQYIEVTPNELFGY”, for which the “soluble fraction (log2)” value is -2.95.

Consider “HMGLKWVYYTNIEPDGNKINNQKLYDILKQKFVYPVIISRDELDSMELKDLTYDSYIDVEGRYFKPYNLD”, for which the “soluble fraction (log2)” value was -2.04. The result for “HMGLNPSILVKLGNANIKTIDNLADLASDELKEILEDISITSKEADEIIMRARSSWFEEDDKKEDNI” reads 0.0765; that for “HMGLPAWVPQNYIDRVTAIYDYSADKDDELTFNEGSTIFVLKKNDDGWWEGVMDGVTGLFPGNYVEAT”, -0.971. The result for “HMGLQLTPVRRRVLEILLHEHRALGAYDILDKLRSEGLGSQPPVAYRALDFLVTHGFAHKIERLNAF” reads -0.829; that for “HMGLQRLTVSPEDAGVRIDKYLAEQLPDITRSYLQKLLKDGSVQMNGKPVKASTKTAVGAVIALTIPEP”, -0.26. Next, “HMGLSAEAARMAIQDAGLSKEDFAQKLGIKKVERVVEWEAGTSKPTFVQAQKIANATNIPFGYLFLVNPPK”: 0.285; “HMGLTRRAQLEVADANLKRLYPGMHQSWVTAIAEYLHSSYWRYINSLEPEYAASIQRVYEQHIDAM”: -0.0229; “HMGLTYEQILTDVQRFVTQNHADTLSNEGNPEEARKLLKDYILQYVQNRSYHVDGQTTEELVDSLYED”: -0.231. As to “HMGLVDSLEPLLRRVYEALPQRRSMTTERLAVAAGLDEESVKVALARLQLSAFVGVDERGWHRSL”, the “soluble fraction (log2)” value is -2.98. As for “HMGLVLIDSYNDIGSAKLITNKIRNLGLIFEENENKINVFAGPFEKNDINLKIDFLIRNGYTNAQLY”, the “soluble fraction (log2)” value is -3.08. As to “HMGLVQQSAQKSDDAAKLMAANNLNAAQSKYQLPDEAEKDFFTFAFERGYAVEDFVDAGLVDKIMADFSA”, the “soluble fraction (log2)” value is -0.447. For the sequence “HMGLVVIGTEAGYPAEKAGILAGDRIRKLNGAAVPDYDTFLTALAARKGEPSAIELERDGKTLEVTVSPL”, the “soluble fraction (log2)” value worked out at 0.105. Next, “HMGLWWTEAERELVKTTIEQLYKDTNIAEPVDSKNLRASIPALKAMRTGLSAENQARVDTLLGALQV”: -0.462; “HMGMAGILDSARMASFIQEKLGYGGGQIRASVMGGHGDDMVPLPRYSTVAGVPLSDVLTQNEIDEMFAQ”: -0.0337; “HMGMDALIGRRVFVSEEILPGDTGGRMAVDGDSWRAISVGTASNIPAGTEVRIRGHQSLVLEVEP”: -0.169. The result for “HMGMEENLLKERKQILMDIMKSKEYQPMKVKELAMVLNVPKEDREELRYVLNELMNEGKIVESKKGKFSIA” reads 0.129. Next, “HMGMESFWNRVANLLNTSTVVELAQILDVKRSTLSSWIHSDRRPPMEVLLKITRLTGVDIHRLE”: -2.59; “HMGMETQLSPKEKSIYTIIQNRPNIQSGEVSEKLAIPLPTVKRILSDLINKGLIEKQGSGRNVSYTI”: 0.338. For “HMGMFNENLRFLRQKRQMSQQAFASILGIPRTTYSEYEKGNTEPNLKLLIRLSELLDVSLDNLISDDLTHN”, the “soluble fraction (log2)” value is -2.82. The result for “HMGMKTSQKLARQREIVRLIRAQTIRTQAELADALRERAFPVSQPTLSKDIAELGLIKVPLPDSGYRYQLP” reads -1.73; that for “HMGMNKEHFIIELKIYLKALNPKDQAIILAKYKALFDARVAEGETEEQVAKSLGKPRVIAEEILKEQGIE”, -3.26; that for “HMGMSMNEFLNNRLEQLAVEAVDKSSLGEEIFFYAEPATINLFKDAVDEDEYKVVFPVLKSIIEVEQKLSR”, -1.24.
